# Where a chain is given by its changes, count along the chain named.
# B1: 25G1 (antibody, human IgG1, kappa, V domains shown)
# VH: QVQLVQSGAEVKKPGASVKVSCKASGYTFRSYGISWVRQAPGQGLEWMGWVAPYSGNTNYAQKLQGRVTMTTDTSTSTAYMELRSLRSDDTAVYYCARDAGTYSPYGYGMDVWGQGTTVTVSS
# VL: DIQMTQSPSTLSASVGDRVTITCRASHSIDSWLAWYQQKPGKAPKLLIYKASYLESGVPSRFSGSGSGTEFTLTISSLQPDDFATYYCQLFQSLPPFTFGGGTKVEIKR
# B2: anti-TF antibody 25A5 (antibody, human IgG1, kappa, V domains shown)
# VH: B1 VH with R30D, S31V, V51I, Y106F
# VL: B1 VL with H27E, D30S, S31N, S52Y, Y53S, S56Y, L90Q, S93K
# B3: 25G9 (antibody, human IgG1, kappa, V domains shown)
# VH: B1 VH
# VL: B1 VL with R24Q, H27Q, K50S, L90R
# B4: 25A5 (antibody, human IgG1, kappa, V domains shown)
# VH: B1 VH with R30D, S31V, V51I, Y106F
# VL: B1 VL with H27E, D30S, S31N, S52Y, Y53S, S56Y, L90Q, S93K
# B5: 25A3 (antibody, human IgG1, kappa, V domains shown)
# VH: B1 VH with R30D, S31V, V51I, Y106F
# VL: B1 VL with R24Q, H27Q, D30N, S31N, S52Y, Y53N
# B6: 39A (antibody, human IgG1, V domains shown)
# VH: QVQLVQSGAEVKKPGSSVKVSCKASGGTFSSNAIGWVRQAPGQGLEWMGSIIPIIGFANYAQKFQGRVTITADESTSTAYMELSSLRSEDTAVYYCARDSGYYYGASSFGMDVWGQGTTVTVSS
# VL: EIVMTQSPATLSVSPGERATLSCRASQSVSSNLAWYQQKPGQAPRLLIYGASTRATGIPARFSGSGSGTEFTLTISSLQSEDFAVYYCEQYNNLPLTFGGGTKVEIK
# B7: 43D (antibody, V domains shown)
# VH: QVQLQQWGAGLLKPSETLSLTCAVYGGSLSGYYWSWIRQPPGKGLEWIGEIGASGSTRYNPSLKSRVTISVDTSKNQFSLKLSSVTAADTAVYYCARDTPYYYEGGYYYYMDVWGKGTTVTVSS
# VL: EIVLTQSPGTLSLSPGERATLSCRASQSVSSSYLAWYQQKPGQAPRLLIYGASSRATGIPDRFSGSGSGTDFTLTISRLEPEDFAVYYCQQVGVVPYTFGGGTKVEIK
# B8: 43B (antibody, V domains shown)
# VH: QVQLQESGPGLVKPSQTLSLTCTVSGGSISSGQYWSWIRQHPGKGLEWIGEIYYSGSTRYNPSLKSRVTISVDTSKNQFSLKLSSVTAADTAVYYCARDAPYYYGGGYYYYMDVWGKGTTVTVSS
# VL: B7 VL
# B9: anti-TF antibody 43B1 (antibody, human IgG1, V domains shown)
# VH: B8 VH
# VL: B7 VL with Q27E, S30D, S54T, A56Q, V92A
# B10: anti-TF antibody 43B7 (antibody, human IgG1, V domains shown)
# VH: B8 VH
# VL: B7 VL with Q27E, S30D, S53D, V92D
# B11: anti-TF antibody 43D (antibody, human IgG1, V domains shown)
# VH: B7 VH
# VL: B7 VL
# B12: 43B7 (antibody, V domains shown)
# VH: B8 VH
# VL: B7 VL with Q27E, S30D, S53D, V92D
# B13: 5G9 (humanized TF8-5G9, CNTO 860) (antibody, V domains shown)
# VH: QVQLVESGGGVVQPGRSLRLSCKASGFNIKDYYMHWVRQAPGKGLEWIGLIDPENGNTIYDPKFQGRFTISADNSKNTLFLQMDSLRPEDTAVYYCARDNSYYFDYWGQGTPVTVSS
# VL: DIQMTQSPSSLSASVGDRVTITCKASQDIRKYLNWYQQKPGKAPKLLIYYATSLADGVPSRFSGSGSGTDYTFTISSLQPEDIATYYCLQHGESPYTFGQGTKLEIT
# B14: 5G9 (humanized TF8-5G9, CNTO 860) (antibody, V domains shown)
# VH: B13 VH
# VL: B13 VL
# B15: 54E (antibody, human IgG1, V domains shown)
# VH: QVQLVQSGAEVKKPGASVKVSCKASGYTFANYYMHWVRQAPGQGLEWMGIINPSGGITVYAQKFQGRVTMTRDTSTSTVYMELSSLRSEDTAVYYCARGGSKVAALAFDIWGQGTMVTVSS
# VL: DIQMTQSPSSLSASVGDRVTITCQASQDISNSLNWYQQKPGKAPKLLIYDASNLETGVPSRFSGSRSGTDFTFTISSLQPEDIATYYCQQYNFHPLTFGGGTKVEIK
# Legend:
# Experiment in all cases: cell-based or functional assay
# [1] = biological target: T1, human Tissue Factor on MDA-MB-231 cells (human, UniProt P13726 33-295)
# [2] = biological target: human Tissue Factor (hTF), endogenously expressed on human TF-positive cells (human, UniProt P13726 33-295)
# Relipidated TF = Relipidated TF (UniProt P13726 33-295, limits assumed)
# [3] = biological target: T1, human Tissue Factor on MDA-MB-231 cells; remark: listed apart in the source
binder,measurement,setting,value
B1,"% IL8, 2.56 nM Ab",[1],46%
same,"% IL8, 6.4 nM Ab",[1],12%
same,"% IL8, 16 nM Ab",[1],9%
same,"% IL8, 40 nM Ab",[1],8%
same,"% IL8, 100 nM Ab",[1],9%
B2,"% GM-CSF, 2.56 nM antibody, MDA-MB-231 cells + FVIIa",[2],72%
same,"% GM-CSF, 6.4 nM antibody, MDA-MB-231 cells + FVIIa",[2],18%
B3,"% IL8, 2.56 nM Ab",[1],51%
same,"% IL8, 16 nM Ab",[1],15%
same,"% IL8, 40 nM Ab",[1],14%
same,"% IL8, 100 nM Ab",[1],13%
B4,"% IL8, 2.56 nM Ab",[1],70%
same,"% IL8, 16 nM Ab",[1],7%
same,"% IL8, 40 nM Ab",[1],7%
B5,"% IL8, 2.56 nM Ab",[1],47%
same,"% IL8, 6.4 nM Ab",[1],9%
same,"% IL8, 16 nM Ab",[1],8%
same,"% IL8, 40 nM Ab",[1],8%
same,"% IL8, 100 nM Ab",[1],8%
B6,"% ETP, TGA 10 min pre-incubation, 10 nM Ab",Relipidated TF,0%
same,"% Peak IIa, TGA […] min pre-incubation, 10 nM Ab",Relipidated TF,13%
same,"% Peak IIa, TGA […] min pre-incubation, 50 nM Ab",Relipidated TF,8%
same,"% Peak IIa, TGA […] min pre-incubation, 100 nM Ab",Relipidated TF,7%
same,"% ttPeak, TGA 10 min pre-incubation, 10 nM Ab",Relipidated TF,319%
same,"% ttPeak, TGA 10 min pre-incubation, 50 nM Ab",Relipidated TF,491%
same,"% ttPeak, TGA 10 min pre-incubation, 100 nM Ab",Relipidated TF,537%
same,"Lag Time, TGA 10 min pre-incubation, 10 nM Ab",Relipidated TF,19.6 min
same,"Lag Time, TGA 10 min pre-incubation, 50 nM Ab",Relipidated TF,30.7 min
same,"Lag Time, TGA 10 min pre-incubation, 100 nM Ab",Relipidated TF,33.6 min
same,"Peak IIa, TGA […] min pre-incubation, 10 nM Ab",Relipidated TF,36 nM
same,"Peak IIa, TGA […] min pre-incubation, 50 nM Ab",Relipidated TF,22 nM
same,"Peak IIa, TGA […] min pre-incubation, 100 nM Ab",Relipidated TF,19 nM
same,"ttPeak, TGA 10 min pre-incubation, 10 nM Ab",Relipidated TF,29.3 min
same,"ttPeak, TGA 10 min pre-incubation, 50 nM Ab",Relipidated TF,41.4 min
same,"ttPeak, TGA 10 min pre-incubation, 100 nM Ab",Relipidated TF,44.6 min
B7,"% FXa, 25 nM Ab",[3],109%
same,"% IL8, 2.56 nM Ab",[1],58%
same,"% IL8, 6.4 nM Ab",[1],21%
same,"% IL8, 40 nM Ab",[1],5%
same,"% IL8, 100 nM Ab",[1],5%
B8,"% IL8, 2.56 nM Ab",[1],50%
same,"% IL8, 16 nM Ab",[1],5%
same,"% IL8, 40 nM Ab",[1],4%
same,"% IL8, 100 nM Ab",[1],4%
B9,"% GM-CSF, 2.56 nM antibody, MDA-MB-231 cells + FVIIa",[2],50%
same,"% GM-CSF, 6.4 nM antibody, MDA-MB-231 cells + FVIIa",[2],16%
B10,"% GM-CSF, 2.56 nM antibody, MDA-MB-231 cells + FVIIa",[2],50%
same,"% GM-CSF, 6.4 nM antibody, MDA-MB-231 cells + FVIIa",[2],17%
B11,"% GM-CSF, 2.56 nM antibody, MDA-MB-231 cells + FVIIa",[2],56%
same,"% GM-CSF, 6.4 nM antibody, MDA-MB-231 cells + FVIIa",[2],24%
same,"% GM-CSF, 16 nM antibody, MDA-MB-231 cells + FVIIa",[2],13%
same,"% GM-CSF, 40 nM antibody, MDA-MB-231 cells + FVIIa",[2],11%
same,"% GM-CSF, 100 nM antibody, MDA-MB-231 cells + FVIIa",[2],12%
B12,"% IL8, 2.56 nM Ab",[1],55%
same,"% IL8, 6.4 nM Ab",[1],15%
same,"% IL8, 16 nM Ab",[1],8%
same,"% IL8, 40 nM Ab",[1],4%
same,"% IL8, 100 nM Ab",[1],4%
B13,"% Peak IIa, TGA […] min pre-incubation, 10 nM Ab",Relipidated TF,11%
same,"% Peak IIa, TGA […] min pre-incubation, 50 nM Ab",Relipidated TF,8%
same,"% Peak IIa, TGA […] min pre-incubation, 100 nM Ab",Relipidated TF,8%
same,"% ttPeak, TGA 10 min pre-incubation, 10 nM Ab",Relipidated TF,314%
same,"% ttPeak, TGA 10 min pre-incubation, 50 nM Ab",Relipidated TF,386%
same,"% ttPeak, TGA 10 min pre-incubation, 100 nM Ab",Relipidated TF,436%
same,"Lag Time, TGA 10 min pre-incubation, 10 nM Ab",Relipidated TF,19.3 min
same,"Lag Time, TGA 10 min pre-incubation, 50 nM Ab",Relipidated TF,23.6 min
same,"Lag Time, TGA 10 min pre-incubation, 100 nM Ab",Relipidated TF,26.7 min
same,"Peak IIa, TGA […] min pre-incubation, 10 nM Ab",Relipidated TF,30 nM
same,"Peak IIa, TGA […] min pre-incubation, 50 nM Ab",Relipidated TF,23 nM
same,"Peak IIa, TGA […] min pre-incubation, 100 nM Ab",Relipidated TF,22 nM
same,"ttPeak, TGA 10 min pre-incubation, 10 nM Ab",Relipidated TF,29 min
same,"ttPeak, TGA 10 min pre-incubation, 50 nM Ab",Relipidated TF,34 min
same,"ttPeak, TGA 10 min pre-incubation, 100 nM Ab",Relipidated TF,37.5 min
B14,"% FXa, 12.5 nM Ab",[3],37%
same,"% FXa, 25 nM Ab",[3],33%
same,"% FXa, 50 nM Ab",[3],30%
same,"% FXa, 100 nM Ab",[3],30%
B15,"% ETP, TGA 10 min pre-incubation, 10 nM Ab",Relipidated TF,83%
same,"% Peak IIa, TGA […] min pre-incubation, 10 nM Ab",Relipidated TF,43%
same,"% Peak IIa, TGA […] min pre-incubation, 50 nM Ab",Relipidated TF,16%
same,"% Peak IIa, TGA […] min pre-incubation, 100 nM Ab",Relipidated TF,13%
same,"% ttPeak, TGA 10 min pre-incubation, 10 nM Ab",Relipidated TF,96%
same,"% ttPeak, TGA 10 min pre-incubation, 50 nM Ab",Relipidated TF,303%
same,"% ttPeak, TGA 10 min pre-incubation, 100 nM Ab",Relipidated TF,371%
same,"ETP, TGA 10 min pre-incubation, 10 nM Ab",Relipidated TF,1520 nM·min
same,"Lag Time, TGA 10 min pre-incubation, 10 nM Ab",Relipidated TF,6.5 min
same,"Lag Time, TGA 10 min pre-incubation, 50 nM Ab",Relipidated TF,18.3 min
same,"Lag Time, TGA 10 min pre-incubation, 100 nM Ab",Relipidated TF,22.3 min
same,"Peak IIa, TGA […] min pre-incubation, 10 nM Ab",Relipidated TF,121 nM
same,"Peak IIa, TGA […] min pre-incubation, 50 nM Ab",Relipidated TF,44 nM
same,"Peak IIa, TGA […] min pre-incubation, 100 nM Ab",Relipidated TF,37 nM
same,"ttPeak, TGA 10 min pre-incubation, 10 nM Ab",Relipidated TF,13.7 min
same,"ttPeak, TGA 10 min pre-incubation, 50 nM Ab",Relipidated TF,28.2 min
same,"ttPeak, TGA 10 min pre-incubation, 100 nM Ab",Relipidated TF,33 min

# — patent US20240166765A1 (ICONIC THERAPEUTICS, published 2024)
